Laboratory results: patent US20250257149A1 (GLYCOTOPE, published 2025)

B1: humanized antibody PankoMab (with Fab glycosylation) (antibody, human IgG1, kappa)
heavy: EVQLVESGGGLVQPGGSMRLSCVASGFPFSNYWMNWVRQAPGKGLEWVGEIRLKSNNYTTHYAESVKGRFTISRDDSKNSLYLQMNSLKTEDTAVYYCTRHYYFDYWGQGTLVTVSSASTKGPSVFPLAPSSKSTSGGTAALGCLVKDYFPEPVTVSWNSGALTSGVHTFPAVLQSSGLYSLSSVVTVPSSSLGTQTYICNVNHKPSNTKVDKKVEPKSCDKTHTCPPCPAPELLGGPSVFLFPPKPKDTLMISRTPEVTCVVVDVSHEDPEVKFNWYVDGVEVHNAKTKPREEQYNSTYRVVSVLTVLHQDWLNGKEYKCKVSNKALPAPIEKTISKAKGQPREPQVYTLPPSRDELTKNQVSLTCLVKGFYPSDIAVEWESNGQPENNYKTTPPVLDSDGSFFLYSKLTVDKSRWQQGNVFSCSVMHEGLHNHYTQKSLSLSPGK
light: DIVMTQSPLSNPVTPGEPASISCRSSKSLLHSNGITYFFWYLQKPGQSPQLLIYQMSNLASGVPDRFSGSGSGTDFTLRISRVEAEDVGVYYCAQNLELPPTFGQGTKVEIKRTVAAPSVFIFPPSDEQLKSGTASVVCLLNNFYPREAKVQWKVDNALQSGNSQESVTEQDSKDSTYSLSSTLTLSKADYEKHKVYACEVTHQGLSSPVTKSFNRGEC
modifications: N-glycan on Asn54 (Kabat/EU numbering; amino acid position 57) in CDR-H2
notes: IgG1 kappa made in NM-H9D8 cells (for the FcγRIIIa assay also in NM-H9D8-E6Q12, low fucose); also called PM; PankoMab-GEX®
B2: humanized antibody PankoMab N54Q (without Fab glycosylation) (antibody, human IgG1, kappa)
heavy: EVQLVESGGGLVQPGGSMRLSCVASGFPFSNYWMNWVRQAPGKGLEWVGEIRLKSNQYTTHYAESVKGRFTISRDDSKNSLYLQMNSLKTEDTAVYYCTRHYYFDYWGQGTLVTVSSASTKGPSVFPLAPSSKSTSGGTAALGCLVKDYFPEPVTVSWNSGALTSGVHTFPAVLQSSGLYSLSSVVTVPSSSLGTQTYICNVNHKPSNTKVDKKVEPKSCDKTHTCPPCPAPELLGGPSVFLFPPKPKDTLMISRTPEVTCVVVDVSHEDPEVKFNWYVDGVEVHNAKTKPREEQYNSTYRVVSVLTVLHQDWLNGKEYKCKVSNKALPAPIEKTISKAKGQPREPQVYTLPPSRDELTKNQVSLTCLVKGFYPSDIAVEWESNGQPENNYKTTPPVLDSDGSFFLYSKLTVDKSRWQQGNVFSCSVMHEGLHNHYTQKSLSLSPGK
light: B1 light
notes: IgG1 kappa; Made in NM-H9D8 cells (for the FcγRIIIa assay also in NM-H9D8-E6Q12, low fucose); also called PM-N54Q; PM N54Q w/o Fab glyc
B3: PankoMab N54D (antibody, V domains shown)
VH: EVQLVESGGGLVQPGGSMRLSCVASGFPFSNYWMNWVRQAPGKGLEWVGEIRLKSNDYTTHYAESVKGRFTISRDDSKNSLYLQMNSLKTEDTAVYYCTRHYYFDYWGQGTLVTVSS
VL: DIVMTQSPLSNPVTPGEPASISCRSSKSLLHSNGITYFFWYLQKPGQSPQLLIYQMSNLASGVPDRFSGSGSGTDFTLRISRVEAEDVGVYYCAQNLELPPTFGQGTKVEIKR
notes: Light chain unchanged; also called PM-N54D

What was measured:
[1] = biological target: T1, TA-MUC1 (tumor-associated MUC1) on human tumor cell lines (human, UniProt P15941 24-1255, aberrant tumor-associated O-glycosylation); assay: saturation binding of 111In-labelled antibody on MCF-7 cells
T1 construct: whole, on cells; also called cellular TA-MUC1; cell surface TA-MUC1
Protocol: (§1) Binding of the Fab-deglycosylated version of the MUC1-specific antibody PankoMab (PM-N54Q) on TA-MUC-1 positive human tumor cell lines was evaluated using radiolabeled antibodies by saturated binding analysis on the human mamma carcinoma cell lines ZR-75-1 and MCF-7 in comparison to Fab-glycosylated PankoMab-GEX®. The antibodies were chelated with a 12-fold molar excess of p-SCN-Benzyl-DTPA in 50 mM sodium carbonate, 150 mM NaCl, pH 8.7, for 2 h at 37° C., followed by over-night incubation at 2-8° C. Free chelator was removed over desalting columns and dead-end filtration (50 kDa cut-off, 6× buffer exchange to PBS). The chelated antibodies were radiolabeled with carrier-free ¹¹¹In (2 μCi/μg antibody) for 1 h at 37° C. in 6 mM phosphate, 1.6 mM KCl, 80 mM NaCl, 0.2 M Na-acetate, 0.1 M HCl. The preparations were neutralized by addition of 8-9 fold volume of 10× concentrated PBS. About 1/50 volume of fetal bovine serum were added to the neutralized labelled antibody preparation. Per cell binding approach 1*10⁶ cells were used. Several concentrations of labelled antibodies were added to the pelleted cells (30-1000 ng/200 μL in 1% BSA/PBS). The resuspended cell-antibody mixtures were measured in a gamma-counter and incubated 1 h at 4° C. […] The cell pellet was then measured for bound ¹¹¹In-labelled antibody in a gamma counter. […]

[2] = biological target: T1, TA-MUC1 (tumor-associated MUC1) on …; assay: flow cytometry on HSC-4 cells, detection with PE-conjugated goat anti-human IgG
Protocol: (§2) N54Q and N54D were transiently expressed and purified by protein A chromatography. Binding of the two variants to cell surface TA-MUC1 was compared to PM with Fab glycosylation using two different carcinoma cell lines. The tongue squamous cell carcinoma line HSC-4 expresses TA-MUC1 to a medium degree and the ovarian carcinoma cell line CaOV-3 to a high degree. Tumor cells were incubated with antibodies in serial dilutions and bound antibodies were detected using a Phycoerythrin-conjugated goat anti-human IgG (heavy and light chain) antibody. A human IgG control was included to control for background staining. Binding was analyzed by flow cytometry.

[3] = biological target: T1, TA-MUC1 (tumor-associated MUC1) on …; assay: saturation binding of 111In-labelled antibody on ZR-75-1 cells
Protocol: as §1

[4] = biological target: T1, TA-MUC1 (tumor-associated MUC1) on …; assay: flow cytometry on CaOV-3 cells, detection with PE-conjugated goat anti-human IgG
Protocol: as §2

[5] = biological target: T1, TA-MUC1 (tumor-associated MUC1) on …; assay: saturation binding of 111In-labelled antibody on ZR-75-1 and MCF-7 cells
Protocol: as §1

T1 sequence (P15941 24-1255): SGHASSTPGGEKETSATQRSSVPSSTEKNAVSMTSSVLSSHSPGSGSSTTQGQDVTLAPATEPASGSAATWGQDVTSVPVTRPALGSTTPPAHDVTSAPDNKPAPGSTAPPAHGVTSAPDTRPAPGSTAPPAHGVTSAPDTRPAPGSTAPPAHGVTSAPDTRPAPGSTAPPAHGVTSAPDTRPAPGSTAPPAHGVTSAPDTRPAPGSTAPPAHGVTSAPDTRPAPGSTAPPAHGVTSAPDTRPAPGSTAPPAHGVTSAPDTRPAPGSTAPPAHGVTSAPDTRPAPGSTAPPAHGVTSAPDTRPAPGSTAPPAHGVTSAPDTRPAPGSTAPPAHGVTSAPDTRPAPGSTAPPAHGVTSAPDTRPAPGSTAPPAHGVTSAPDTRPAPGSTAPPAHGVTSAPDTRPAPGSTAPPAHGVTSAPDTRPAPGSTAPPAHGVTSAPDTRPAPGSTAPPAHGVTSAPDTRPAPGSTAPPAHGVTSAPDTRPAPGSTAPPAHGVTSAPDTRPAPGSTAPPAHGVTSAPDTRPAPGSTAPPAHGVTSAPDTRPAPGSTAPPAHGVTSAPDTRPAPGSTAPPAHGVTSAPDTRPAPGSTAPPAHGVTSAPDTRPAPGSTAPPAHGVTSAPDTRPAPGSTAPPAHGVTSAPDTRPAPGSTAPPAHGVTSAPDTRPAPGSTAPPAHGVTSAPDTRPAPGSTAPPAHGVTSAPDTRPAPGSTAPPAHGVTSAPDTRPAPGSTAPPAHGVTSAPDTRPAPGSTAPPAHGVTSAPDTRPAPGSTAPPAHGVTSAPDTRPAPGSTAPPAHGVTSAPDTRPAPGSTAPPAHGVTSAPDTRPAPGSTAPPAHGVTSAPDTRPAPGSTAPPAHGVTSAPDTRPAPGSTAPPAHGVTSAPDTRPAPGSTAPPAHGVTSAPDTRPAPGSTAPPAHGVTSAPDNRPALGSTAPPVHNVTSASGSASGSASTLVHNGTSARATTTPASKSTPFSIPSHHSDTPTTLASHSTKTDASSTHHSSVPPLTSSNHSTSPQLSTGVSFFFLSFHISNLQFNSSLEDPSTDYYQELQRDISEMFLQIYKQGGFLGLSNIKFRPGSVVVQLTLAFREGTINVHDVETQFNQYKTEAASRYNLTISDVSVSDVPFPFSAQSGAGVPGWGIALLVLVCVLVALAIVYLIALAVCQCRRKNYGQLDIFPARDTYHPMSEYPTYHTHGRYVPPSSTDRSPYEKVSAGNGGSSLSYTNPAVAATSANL

| Binder | Ka [1] | EC50 (read off the curve) [2] | Ka [3] | EC50 (read off the curve) [4] | fold higher binding than PankoMab-GEX® [5] |
| --- | --- | --- | --- | --- | --- |
| B1 | 3e+07 M⁻¹ | ~300 ng/mL | 1.2e+07 M⁻¹ | ~3 ng/mL |  |
| B2 | 7.8e+07 M⁻¹ | ~100 ng/mL | 3.4e+07 M⁻¹ | ~2 ng/mL | > 2.5 fold |
| B3 |  |  |  | ~4 ng/mL |  |
